Assay results from patent publication US20140105889A1 (published 2014).
Where two headings read alike, the source gives them in different places.

Experiments:
[1] = target: T1, human FcRn (soluble human FcRn complexed with β2-microglobulin) (human, UniProt P61769 21-119); test: SPR (Biacore), Protein L capture, hFcRn analyte, pH 7.0
T1 construct: also called hFcRn

[2] = target: T1, human FcRn (soluble human FcRn …); test: as above; remark: listed apart in the source

| Binder | Kd [1] [nM] | Kd [2] [nM] |
| --- | --- | --- |
| IgG1-F445 (antibody, name in EU numbering, copies: 2 + 2) heavy: QVQLQESGPGLVKPSETLSLTCAVSGHSISHDHAWSWVRQPPGEGLEWIGFISYSGITNYNPSLQGRVTISRDNSKNTLYLQMNSLRAEDTAVYYCARSLARTTAMDYWGEGTLVTVSSASTKGPSVFPLAPSSKSTSGGTAALGCLVKDYFPEPVTVSWNSGALTSGVHTFPAVLQSSGLYSLSSVVTVPSSSLGTQTYICNVNHKPSNTKVDKKVEPKSCDKTHTCPPCPAPELLGGPSVFLFPPKPKDTLMISRTAEVTCVVVDVSHEDPEVKFNWYVDGVEVHNAKTKPREEQYNSTYRVVSVLQVLHHDWLNGKEYKCKVSNKALPAPIEKTISKAKGQPREPQVYTLPPSRDELTKNQVSLTCLVKGFYPSDIAVEWESNGQPENNYKTTPPVLDSDGSFFLYSKLTVDKSRWQQGNVFSCSVLHEALHYHYTQKSLSLSP light: not shown | 62 |  |
| IgG1-F450 (antibody, name in EU numbering, copies: 2 + 2) heavy: QVQLQESGPGLVKPSETLSLTCAVSGHSISHDHAWSWVRQPPGEGLEWIGFISYSGITNYNPSLQGRVTISRDNSKNTLYLQMNSLRAEDTAVYYCARSLARTTAMDYWGEGTLVTVSSASTKGPSVFPLAPSSKSTSGGTAALGCLVKDYFPEPVTVSWNSGALTSGVHTFPAVLQSSGLYSLSSVVTVPSSSLGTQTYICNVNHKPSNTKVDKKVEPKSCDKTHTCPPCPAPELLGGPKVFLFPPKPKDTLYISRTPEVTCVVVDVSHEDPEVKFNWYVDGVEVHNAKTKPREEQYNSTYRVVSVLPVEHQDWLNGKEYKCKVSGKALPAPIEKTISKAKGQPREPQVYTLPPSRDELTKNQVSLTCLVKGFYPSDIAVEWESNGQPENNYKTTPPVLDSDGSFFLYSKLTVDKSRWQQGNVFSCSVYHEALHYHYTQKSLSLSP light: not shown | 520 |  |
| IgG1-F462 (antibody, name in EU numbering, copies: 2 + 2) heavy: QVQLQESGPGLVKPSETLSLTCAVSGHSISHDHAWSWVRQPPGEGLEWIGFISYSGITNYNPSLQGRVTISRDNSKNTLYLQMNSLRAEDTAVYYCARSLARTTAMDYWGEGTLVTVSSASTKGPSVFPLAPSSKSTSGGTAALGCLVKDYFPEPVTVSWNSGALTSGVHTFPAVLQSSGLYSLSSVVTVPSSSLGTQTYICNVNHKPSNTKVDKKVEPKSCDKTHTCPPCPAPELLGGPSVFLFPPKPKDTLMISRTAEVTCVVVDVSHEDPEVKFNWYVDGVEVHNAKTKPREEQYNSTYRVVSVLTPLHQDWLNGKEYKCKVSGKALPAPIEKTISKAKGQPREPQVYTLPPSRDELTKNQVSLTCLVKGFYPSDIAVEWESNGQPENNYKTTPPVLDSDGSFFLYSKLTVDKSRWQQGNVFSCSVLHEALHYHYTQKSLSLSP light: not shown | 85 |  |

The remaining lines, values ahead:

| Kd [1] [nM] | Kd [2] [nM] | Binder |
| --- | --- | --- |
|  | 98 | IgG1-F492 (antibody, name in EU numbering, copies: 2 + 2) heavy: QVQLQESGPGLVKPSETLSLTCAVSGHSISHDHAWSWVRQPPGEGLEWIGFISYSGITNYNPSLQGRVTISRDNSKNTLYLQMNSLRAEDTAVYYCARSLARTTAMDYWGEGTLVTVSSASTKGPSVFPLAPSSKSTSGGTAALGCLVKDYFPEPVTVSWNSGALTSGVHTFPAVLQSSGLYSLSSVVTVPSSSLGTQTYICNVNHKPSNTKVDKKVEPKSCDKTHTCPPCPAPELLGGPSVFLFPPKPKDTLMISRTVEVTCVVVDVSHEDPEVKFNWYVDGVEVHNAKTKPREEQYNSTYRVVSALAVLHQDWLNGKEYKCKVSGKALPAPIEKTISKAKGQPREPQVYTLPPSRDELTKNQVSLTCLVKGFYPSDIAVEWESNGQPENNYKTTPPVLDSDGSFFLYSKLTVDKSRWQQGNVFSCSVLHEALHYHYTQKSLSLSP light: not shown |
|  | 9.4 | IgG1-F527 (antibody, name in EU numbering, copies: 2 + 2) heavy: QVQLQESGPGLVKPSETLSLTCAVSGHSISHDHAWSWVRQPPGEGLEWIGFISYSGITNYNPSLQGRVTISRDNSKNTLYLQMNSLRAEDTAVYYCARSLARTTAMDYWGEGTLVTVSSASTKGPSVFPLAPSSKSTSGGTAALGCLVKDYFPEPVTVSWNSGALTSGVHTFPAVLQSSGLYSLSSVVTVPSSSLGTQTYICNVNHKPSNTKVDKKVEPKSCDKTHTCPPCPAPELLGGPSVFLFPPKPKDTLMISRTVEVTCVVVDVSHEDPEVKFNWYVDGVEVHNAKTKPREEQYNSTYRVVSVLQPLHQDWLNGKEYKCKVSGKALPAPIEKTISKAKGQPREPQVYTLPPSRDELTKNQVSLTCLVKGFYPSDIAVEWESNGQPENNYKTTPPVLDSDGSFFLYSKLTVDKSRWQQGNVFSCSVYHEALHYHYTQKSLSLSP light: not shown |
